The values that follow come from article PMC5473137, “Structure of a SMG8–SMG9 complex identifies a G-domain heterodimer in the NMD effector proteins” (RNA, 2017).

The assay deals with T1, C. elegans SMG8c (SMG8 residues 1-423) (C. elegans, UniProt O62301 1-423).
T1 construct: SMG8, C. elegans, full length 873 residues; core fragment residues 1-423 (G-like domain and stalk); Selenomethionine-substituted protein (about 60% incorporation) was used for phasing; native crystals were soaked with GDP; SMG8 was insoluble when expressed in isolation; also called C.e; SMG8 1-423; CeSMG8
T1 sequence (looked up): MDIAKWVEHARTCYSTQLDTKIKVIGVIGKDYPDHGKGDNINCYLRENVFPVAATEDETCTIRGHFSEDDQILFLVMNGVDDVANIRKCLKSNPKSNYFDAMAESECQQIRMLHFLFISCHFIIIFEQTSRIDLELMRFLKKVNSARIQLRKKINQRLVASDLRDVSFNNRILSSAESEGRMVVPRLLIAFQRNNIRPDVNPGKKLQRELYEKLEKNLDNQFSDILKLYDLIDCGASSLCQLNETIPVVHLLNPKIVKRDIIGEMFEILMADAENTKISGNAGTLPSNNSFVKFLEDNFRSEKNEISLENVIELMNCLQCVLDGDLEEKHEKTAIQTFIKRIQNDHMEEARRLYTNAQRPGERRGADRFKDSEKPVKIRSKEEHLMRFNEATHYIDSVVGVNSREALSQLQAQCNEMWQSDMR
Kind of assay: crystal structure; coexpressed and co-purified SMG8c-SMG9c core complex; vapor diffusion, 10% PEG3350, 0.1M Tris pH 8.5, 0.11 mM YCl3; SeMet crystals (2.5 Å) and native crystals soaked with 10 mM GDP (2.65 Å); three copies of the complex in the asymmetric unit. Particulars: both partners purified.

B1: C. elegans SMG9c (SMG9 residues 59-375) (domain or fragment, UniProt Q9XWJ1 59-375, looked up)
chain: MKESVRFLTDFGEISDAISDLLTSSPNFNVISAIGPQGAGKSTLLSMLAGNNSRQMYREYVFRPVSREANEQSRHQTIQIDIYIVNHQIFLDCQPMYSFSIMEGLPKVRGGRFDDSTAMSDTLRLTAFLLYVSHTVLVVSETHYDKVIIDTLRVAEQIRPYLAIFRPKLAIDRKTNLVFIKTKASSIDLAPTVIREREELLRLSFQDSRWLKVSQEPFKTLIVLEEIRVRREHLFEEGDEPDEAASLNEFDEQIAELREELQKNREDFTVETAAMDEKKWLDMCREVIRDKTLHKTLKEYQRAMTDGVRTHFDNGFH
notes: SMG9, C. elegans, full length 385 residues; core fragment residues 59-375 (G domain); Selenomethionine-substituted protein (about 60% incorporation) was used for phasing; native crystals were soaked with GDP; also called C.e; SMG9 59-375; CeSMG9c
On to B1, for which the binding result is given as “binds”.
